US20150167004, “OLIGONUCLEOTIDE INHIBITORS OF DNA […] AND THEIR USE IN TREATING DISEASES” (METHEOR THERAPEUTICS CORPORATION, published 2015)

Tests used:
DNMT1 [1] = biological target: T1, DNMT1 (Homo sapiens, UniProt P26358 P26358:1-1616); assay: inhibition; 25 nM DNMT1, poly(dI:dC) substrate, 1 uM SAM; table header cites SEQ 5 and 6 but oligo is MTC-424F/R; Table 5 gives 1.43 uM
Experimental: (§1) DNA Methyltransferase 1 (DNMT1) was essentially assayed as described in Tollefsbol, T. O. and Hutchison III, C. A.: J. Biol. Chem. (1995), 270:18543-50 with the following modifications. Assay reaction was 5 μl volume, the DNA substrate was poly (dI:dC) 0.001 mg/ml and co-factor S-AdoMet at 1.0 μM; human DNMT1 was added at 25 nM. Reaction: S-adenosyl-L-[methyl-3H] methionine+DNA=S-adenosyl-L-homocysteine+DNA 5-[methyl-3H]-cytosine. S-AdoHCy was used as a positive control for the inhibition reaction.

DNMT3A [2] = biological target: T2, DNMT3A (Homo sapiens, UniProt Q9Y6K1 Q9Y6K1:1-912); assay: inhibition; 25 nM DNMT3A, lambda DNA substrate, 1 uM SAM
DNMT3B (DNMT3b1) [3] = biological target: T3, DNMT3B (DNMT3b1) (Homo sapiens, UniProt Q9UBC3 Q9UBC3:1-853); assay: inhibition; tritiated methyl incorporation from SAM; IC50 not estimable in Table 4
DNMT3A [4] = biological target: T2, DNMT3A; assay: inhibition; tritiated methyl incorporation from SAM
DNMT1 [5] = biological target: T1, DNMT1; assay: as above
DNMT3B (DNMT3b1) [6] = biological target: T3, DNMT3B (DNMT3b1); assay: as above
DNMT1 [7] = biological target: T1, DNMT1; assay: inhibition; 25 nM DNMT1, poly(dI:dC) substrate, 1 uM SAM; Table 5 gives 348 nM; details: hairpin
Experimental: as §1

DNMT3A [8] = biological target: T2, DNMT3A; assay: inhibition; 25 nM DNMT3A, lambda DNA substrate, 1 uM SAM; Table 5 gives 1.5 uM
DNMT3B (DNMT3b1) [9] = biological target: T3, DNMT3B (DNMT3b1); assay: inhibition; 25 nM DNMT3B, lambda DNA substrate, 1 uM SAM; Table 5 gives 18.9 uM
DNMT1 [10] = biological target: T1, DNMT1; assay: inhibition; 25 nM DNMT1, poly(dI:dC) substrate, 1 uM SAM; Table 5 gives 5.52 uM; details: hairpin
Experimental: as §1

DNMT3B (DNMT3b1) [11] = biological target: T3, DNMT3B (DNMT3b1); assay: inhibition; 25 nM DNMT3B, lambda DNA substrate, 1 uM SAM

T1 sequence (P26358 whole entry, one chain of several): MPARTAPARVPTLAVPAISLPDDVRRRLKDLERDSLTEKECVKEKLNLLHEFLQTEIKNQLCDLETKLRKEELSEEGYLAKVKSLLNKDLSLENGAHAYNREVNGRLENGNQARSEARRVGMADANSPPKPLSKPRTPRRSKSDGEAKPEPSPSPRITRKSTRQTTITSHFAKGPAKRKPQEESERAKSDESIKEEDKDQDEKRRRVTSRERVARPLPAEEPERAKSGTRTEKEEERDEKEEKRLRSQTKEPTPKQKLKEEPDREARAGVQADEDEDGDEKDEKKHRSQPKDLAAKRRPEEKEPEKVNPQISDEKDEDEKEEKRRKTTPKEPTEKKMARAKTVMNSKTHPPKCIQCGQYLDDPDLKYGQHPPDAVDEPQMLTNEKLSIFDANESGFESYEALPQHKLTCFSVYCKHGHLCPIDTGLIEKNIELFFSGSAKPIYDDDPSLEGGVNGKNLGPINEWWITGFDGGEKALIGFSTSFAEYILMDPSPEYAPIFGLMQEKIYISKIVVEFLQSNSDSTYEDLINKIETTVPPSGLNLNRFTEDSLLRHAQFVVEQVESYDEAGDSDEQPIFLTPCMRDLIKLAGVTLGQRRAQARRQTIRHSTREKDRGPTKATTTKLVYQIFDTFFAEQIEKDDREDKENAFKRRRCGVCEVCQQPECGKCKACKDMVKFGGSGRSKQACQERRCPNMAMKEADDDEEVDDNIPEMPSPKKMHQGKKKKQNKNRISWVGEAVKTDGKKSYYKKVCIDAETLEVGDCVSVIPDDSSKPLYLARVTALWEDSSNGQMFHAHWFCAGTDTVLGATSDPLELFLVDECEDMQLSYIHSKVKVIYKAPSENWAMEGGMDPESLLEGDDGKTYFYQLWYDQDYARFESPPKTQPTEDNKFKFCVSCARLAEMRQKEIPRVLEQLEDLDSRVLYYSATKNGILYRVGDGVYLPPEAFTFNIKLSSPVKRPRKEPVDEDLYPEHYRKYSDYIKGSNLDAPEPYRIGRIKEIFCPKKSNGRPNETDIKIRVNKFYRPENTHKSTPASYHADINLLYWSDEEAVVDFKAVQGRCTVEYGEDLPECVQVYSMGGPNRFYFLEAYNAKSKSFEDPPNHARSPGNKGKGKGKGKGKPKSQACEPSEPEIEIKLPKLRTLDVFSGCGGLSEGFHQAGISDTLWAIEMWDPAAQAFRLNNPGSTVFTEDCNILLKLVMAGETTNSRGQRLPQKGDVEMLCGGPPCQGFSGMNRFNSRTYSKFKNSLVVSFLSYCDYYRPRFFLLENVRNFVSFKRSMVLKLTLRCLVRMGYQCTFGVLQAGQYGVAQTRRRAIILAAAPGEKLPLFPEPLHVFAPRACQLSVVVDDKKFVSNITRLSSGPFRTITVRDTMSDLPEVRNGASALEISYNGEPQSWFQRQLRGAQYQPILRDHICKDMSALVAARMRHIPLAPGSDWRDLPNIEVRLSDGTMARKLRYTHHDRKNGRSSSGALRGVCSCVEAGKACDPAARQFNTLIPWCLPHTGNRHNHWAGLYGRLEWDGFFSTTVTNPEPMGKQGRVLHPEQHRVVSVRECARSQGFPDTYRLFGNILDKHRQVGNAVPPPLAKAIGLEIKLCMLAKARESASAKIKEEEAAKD
T2 sequence (Q9Y6K1 whole entry, one chain of several): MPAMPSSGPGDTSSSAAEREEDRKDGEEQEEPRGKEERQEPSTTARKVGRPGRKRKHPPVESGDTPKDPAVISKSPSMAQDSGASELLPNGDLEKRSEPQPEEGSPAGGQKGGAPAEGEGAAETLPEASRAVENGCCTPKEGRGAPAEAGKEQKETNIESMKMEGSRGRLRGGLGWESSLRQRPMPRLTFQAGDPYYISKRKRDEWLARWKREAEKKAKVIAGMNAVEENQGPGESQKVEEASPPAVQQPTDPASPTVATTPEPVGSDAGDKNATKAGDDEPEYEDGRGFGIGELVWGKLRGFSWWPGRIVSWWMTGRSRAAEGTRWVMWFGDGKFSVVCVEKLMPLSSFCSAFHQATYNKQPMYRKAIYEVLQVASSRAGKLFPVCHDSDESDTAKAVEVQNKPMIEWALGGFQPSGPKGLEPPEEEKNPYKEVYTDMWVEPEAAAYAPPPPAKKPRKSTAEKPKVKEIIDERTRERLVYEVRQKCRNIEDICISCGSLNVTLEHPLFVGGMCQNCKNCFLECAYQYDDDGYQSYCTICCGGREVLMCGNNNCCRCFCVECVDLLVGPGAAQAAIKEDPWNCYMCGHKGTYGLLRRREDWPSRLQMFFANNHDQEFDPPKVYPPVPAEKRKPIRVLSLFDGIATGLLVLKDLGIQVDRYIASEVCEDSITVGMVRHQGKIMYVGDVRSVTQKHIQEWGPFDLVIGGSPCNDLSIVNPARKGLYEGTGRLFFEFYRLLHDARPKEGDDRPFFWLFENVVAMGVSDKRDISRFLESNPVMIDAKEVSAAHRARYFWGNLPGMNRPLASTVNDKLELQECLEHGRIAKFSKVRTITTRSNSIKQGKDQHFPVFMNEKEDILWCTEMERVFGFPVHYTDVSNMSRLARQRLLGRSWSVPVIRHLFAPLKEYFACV

B1: MTC-424 (dsDNA)
DNA 1: GTACATGCGCTCCAGA
DNA 2: TCTGGAGCGCATGTAC
modifications: 5-aza-5,6-dihydro-dC at 8 of F strand; phosphodiester [F strand: 8]
- IC50 (DNMT1 [1]): 1.94 µM
- IC50 (DNMT3A [2]): 10.2 µM
- IC50 (DNMT3B (DNMT3b1) [3]): > 100 µM

B2: MTC-429 (dsDNA)
DNA 1: GTACATGCGCTCCAGA
DNA 2: TCTGGAGCGCATGTAC
modifications: 5-aza-5,6-dihydro-dC at 8 of F strand; 5mC at 8 of R strand; phosphodiester [F strand: 8; R strand: 8]
- IC50 (DNMT3A [4]): > 50 µM
- IC50 (DNMT1 [5]): 0.906 µM

Binder: CCTATGCGATCGAGTTTTCTCGATCGCATAGG (structured_DNA, 5mC at 7 and 11; deoxy-zebularine at 21 and 25; PS backbone [7,11,21,25]) [MTC-433]
- IC50 (DNMT1 [5]; hairpin): 0.00422 µM

Binder: CCTATGCGATCGAGTTTTCTCGATCGCATAGG (structured_DNA, 5mC at 7 and 11; 5-aza-5,6-dihydro-dC at 21 and 25; phosphodiester [7,11,21,25]) [MTC-425 (MTC-422m)]
- IC50 (DNMT3A [4]): 6.69 µM
- IC50 (DNMT1 [5]; hairpin): 0.504 µM
- IC50 (DNMT3B (DNMT3b1) [6]): > 100 µM

B3: MTC-427 (MTC-423m) (structured_DNA)
DNA: CCTATGCGATCGAGTTTTCTCGATCGCATAGG
modifications: 5mC at 7 and 11; zebularine (pyrimidin-2-one ribonucleoside) at 21 and 25; phosphodiester [7,11,21,25]
- IC50 (DNMT3A [4]): 1.52 µM
- IC50 (DNMT1 [5]; hairpin): 0.295 µM
- IC50 (DNMT3B (DNMT3b1) [6]): 6.2 µM

B4: MTC-423 (structured_DNA)
DNA: CCTATGCGATCGAGTTTTCTCGATCGCATAGG
modifications: zebularine (pyrimidin-2-one ribonucleoside) at 21 and 25; phosphodiester [21,25]
- IC50 (DNMT1 [7]): 0.363 µM
- IC50 (DNMT3A [8]): 1.6 µM
- IC50 (DNMT3B (DNMT3b1) [9]): 17.5 µM

Binder: CCTATGCGATCGAGTTTTCTCGATCGCATAGG (structured_DNA, deoxy-zebularine at 21 and 25; PS backbone [21,25]) [MTC-432]
- IC50 (DNMT1 [5]; hairpin): 0.0083 µM

B5: MTC-422 (structured_DNA)
DNA: CCTATGCGATCGAGTTTTCTCGATCGCATAGG
modifications: 5-aza-5,6-dihydro-dC at 21 and 25; phosphodiester [21, 25 (5-aza-5,6-dihydro-dC)]
- IC50 (DNMT1 [10]): 1.43 µM
- IC50 (DNMT3A [2]): 5.7 µM
- IC50 (DNMT3B (DNMT3b1) [11]): 21.3 µM
